Measurements taken from patent US20210371503A1.

B1: MnC4t1p1_A10 (antibody, V domains shown)
VH: QLQVQESGPGLVKPSETLSLTCTVSGASISSNHYFWGWIRQPPGKGLAWIGSMHYSGSTYYNPSLKSRVTISVDTSKNQLSLKLSSVTAADTAVYYCARGVNYYDRNGYYRNDGFDIRGQGTMVTVSS
VL: DIQMTQSPSSLSASVGDRVTITCRASQGIRNDLGWYEQKPGKAPKRLIYAASSLESGVPSRFSGSGSGTEFTLTISSLQPEDFATYYCLQHNTYPFTFGPGTRVDIK
B2: MnC4t2p1_D10 (antibody, V domains shown)
VH: QLQVQESGPGLVKPSETLSLTCTVSGASISSNHYFWGWIRQPPGKGLAWIGSMHYSGSTYYNPSLKSRVTISVDTSKNQLSLKLSSVTAADTAVYYCARGVNYYDRNGYYRNDGFDIRGQGTMVTVSS
VL: DIQMTQSPSSLSASVGDRVTITCRASQGIRNDLGWYEQKPGKAPKRLIYAASSLESGVPSRFSGSGSGTEFTLTISSLQPEDFATYYCLQHNTYPFTFGPGTRVDIK
B3: MnC4t2p1_F5 (antibody, V domains shown)
VH: QLQVQESGPGLVKPSETLSLTCTVSGASISSNHYFWGWIRQPPGKGLAWIGSMHYSGSTYYNPSLKSRVTISVDTSKNQLSLKLSSVTAADTAVYYCARGVNYYDRNGYYRNDGFDIRGQGTMVTVSS
VL: DIQMTQSPSSLSASVGDRVTITCRASQGIRNDLGWYEQKPGKAPKRLIYAASSLESGVPSRFSGSGSGTEFTLTISSLQPEDFATYYCLQHNTYPFTFGPGTRVDIK

molecular target: SARS-CoV-2 (spike protein) antigen of the Euroimmun IgG detection kit; test: Euroimmun IgG ELISA kit, antibody at 50 µg/ml [cont'd]

Binder	IgG detection test
B1	4.87
B2	5.3
B3	5.19
